One molecule from patent publication US20210388105A1 (ELPISCIENCE SUZHOU BIOPHARMA, published 2021) can be followed below.

Assay [1] addresses T1, human CD39 (full length, on cells) (human, UniProt P49961 1-510).
T1 construct: Recombinant on CHOK1-hCD39 cells or natural on SK-MEL-28, SK-MEL-5 and MOLP-8 cells; the cell line is named under assay; also called hCD39; ENTPD1
T1 sequence: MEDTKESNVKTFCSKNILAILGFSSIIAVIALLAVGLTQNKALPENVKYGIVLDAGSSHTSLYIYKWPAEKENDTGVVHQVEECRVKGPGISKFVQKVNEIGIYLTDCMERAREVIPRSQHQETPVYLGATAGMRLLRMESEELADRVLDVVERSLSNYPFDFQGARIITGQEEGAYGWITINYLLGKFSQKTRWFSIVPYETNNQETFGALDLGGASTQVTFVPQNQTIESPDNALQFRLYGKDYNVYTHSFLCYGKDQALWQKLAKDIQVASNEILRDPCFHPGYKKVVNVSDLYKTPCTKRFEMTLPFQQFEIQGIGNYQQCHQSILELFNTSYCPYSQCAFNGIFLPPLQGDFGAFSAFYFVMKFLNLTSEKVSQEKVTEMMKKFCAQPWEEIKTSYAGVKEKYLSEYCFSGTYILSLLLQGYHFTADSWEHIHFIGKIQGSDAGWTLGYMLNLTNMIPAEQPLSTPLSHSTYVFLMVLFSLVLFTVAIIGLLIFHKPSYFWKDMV
The assay is described as follows: FACS competition on CHOK1-hCD39; competitor mAb19-Alexa488. The procedure:
(§1) Anti-CD39 antibodies were labeled using Alex488 labeling kit and were diluted in a series of concentrations, before mixing with CHOK1-hCD39 cells to test binding EC₅₀using FACS. The non-labeled antibodies were tested for their blocking efficacy to the labelled ones. Briefly, mononuclear CHOK1-hCD39 cells were prepared to 2×10⁶/ml and plated into 96 well at 50 μl/well, then mixed with antibodies gradients to final volume at 100 μl, and then equal volume of Alex488 label antibodies were added at two folds EC80 concentration. 96 well plates were incubated at 4° C. for 1 hour, and spun down and washed 3 times with 200 μl FACS buffer. The FACS analysis was performed on FACScelesta machine and data was analyzed by Flowjo software. The blocking percentages were calculated and those having above 80% competition rate were allocated into one epitope group, compared with the non-competing well (Alex488 labeled antibody only).
(§2) Based on the competition results, the 4 anti-CD39 hybridoma antibodies (mAb14, mAb19, mAb21, mAb23) can be grouped into 4 different epitope groups, as shown in Table 11.

The target in assay [2] is T1, human CD39 (full length, on cells). The assay is described as follows: FACS, SK-MEL-28 cells. The procedure: (§3) FACS were used to determine binding of the antibodies to cell lines expressing CD39 naturally (SK-MEL-28) or recombinantly (CHOK1-hCD39, CHOK1-cynoCD39, and CHOK1-mCD39), or with cells lacking CD39 expression (CHOK1-blank) as a negative control.
Similarly, human CD39 expressing cells SK-MEL-5, SK-MEL-28 or MOLP-8, were incubated with a gradient concentration of anti-CD39 antibodies for 30 minutes at 4° C. Cells were washed 3 times using FACS buffer and next incubated with fluorescence labelled secondary antibody (goat-anti-mouse IgG or goat anti-human IgG) for 30 minutes at 4° C. Cells were washed 3 times and then re-suspended in FACS buffer and analyzed by flow cytometry analysis on BD Celesta. Data plotted and analyzed using GraphPad Prism 8.02.
On the technique in general: In flow cytometry, cells or beads pass a laser one at a time.

For assay [3] the target is unchanged. Kind of assay: FACS competition on CHOK1-hCD39; competitor mAb23-Alexa488. The procedure:
as §1, §2

Assay [4] shares this target. The assay is described as follows: FACS competition on CHOK1-hCD39; competitor mAb14-Alexa488. The procedure: as §1, §2
Assay [5] has as its target T2, mouse CD39 (full length, on CHOK1-mCD39 cells) (mouse, UniProt P55772 1-510).
T2 construct: whole, on cells
T2 sequence (looked up): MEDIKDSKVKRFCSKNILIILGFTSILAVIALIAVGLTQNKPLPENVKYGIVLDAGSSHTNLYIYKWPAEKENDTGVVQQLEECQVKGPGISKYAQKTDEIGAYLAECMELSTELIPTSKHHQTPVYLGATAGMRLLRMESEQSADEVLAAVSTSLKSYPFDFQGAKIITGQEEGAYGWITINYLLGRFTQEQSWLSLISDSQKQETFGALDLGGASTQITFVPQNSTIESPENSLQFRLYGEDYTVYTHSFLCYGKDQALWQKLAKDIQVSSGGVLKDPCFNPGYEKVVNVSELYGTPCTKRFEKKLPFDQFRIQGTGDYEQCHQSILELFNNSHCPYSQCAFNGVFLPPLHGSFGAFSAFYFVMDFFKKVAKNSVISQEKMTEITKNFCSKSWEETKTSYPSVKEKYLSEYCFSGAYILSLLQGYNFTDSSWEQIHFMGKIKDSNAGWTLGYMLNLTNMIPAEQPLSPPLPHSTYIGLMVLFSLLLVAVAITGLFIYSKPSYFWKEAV
The assay is described as follows: FACS, CHOK1-mCD39 cells.
From the text: as §3
(§4) CHOK1-hCD39, CHOK1-cCD39, CHOK1-mCD39 and CHOK1-blank cells were maintained in culture medium according to ATCC procedure. Cells were collected and re-suspended in blocking buffer at a density of 3×10⁶ cells/ml. Cells were transferred to 96 well FACS plates at 100 μl/well (3×10⁵ cells/well), the plates were centrifuged and washed twice with FACS buffer (PBS, 1% FBS, 0.05% Tween-20). 4-folds serial dilution of anti-CD39 antibodies were prepared in FACS buffer starting from 30 μg/ml. Reference antibody 9-8B and mouse/human control IgG were used as positive and negative controls, respectively. Cells were re-suspended in 100 μL/well diluted antibodies, and the plates were incubated at 4° C. for 60 min. […] The plates were washed with FACS buffer, and cells were re-suspended in 100 μL/well of PBS. Cells were then analyzed with FACSVerse™ and mean fluorescence intensity were determined. Full binding curves were generated on the CD39 expressing cells by testing a range of antibody concentrations. Apparent affinity was determined for each antibody using Prism software.

The target in assay [6] is T1, human CD39 (full length, on cells). Kind of assay: FACS, CHOK1-hCD39 cells.
From the text: as §3, §4

Assay [7] shares this target. The assay is described as follows: cell-based or functional assay.
For assay [8] the target is unchanged. Kind of assay: FACS competition on CHOK1-hCD39; competitor mAb21-Alexa488. The procedure: as §1, §2
The target of assay [9] is T3, cynomolgus CD39 (full length, on CHOK1-cynoCD39 cells) (cynomolgus monkey, UniProt A0A7N9DGH8 1-510).
T3 construct: whole, on cells; also called cCD39
T3 sequence: T1 sequence with V47I, F94Y, V221I, I230T, I329V, K368N, A391S, F489V, T490I
The assay is described as follows: FACS, CHOK1-cynoCD39 cells.
From the text: as §3, §4

Assay [10] has as its target T1, human CD39 (full length, on cells). Kind of assay: FACS competition on CHOK1-hCD39; competitor 9-8B-Alexa488. The procedure:
as §1, §2

Numbering of substitutions follows the chain as printed.

By EC50 is commonly meant the concentration giving half of the maximal effect. A higher EC50 goes with weaker potency.

B1: mAb23 (antibody, V domains shown)
VH: EVQLQQSGAELLRPGASVKLSCTASGYNLKDTFLHWVKQRPEQGLEWIGRIDPANGNIKYDPKFQGKATLTADTSSNTAYLQLISLTSEDTAVYYCANSPYYYGSGYRIFDVWGAGTTVTVSS
VL: QIVLTQSPAIMSASPGEKVTITCSAFSSVNYMHWYQQKPGTSPKLLIYTTSNLASGVPTRFSGSGSGTSYSLTISRMEAEDAATYYCQQRSTYPFTFGSGTKLEIQ
notes: mouse hybridoma antibody
Consider B1, for which the blocking percentage was 98% in assay [1]; 100% in assay [3]; 86% in assay [4]; 93% in [8]; 98% in assay [10]. Also, the 50% effective concentration (EC50) is 1.6 nM in assay [2], 1.7 nM in assay [6] and 2.3 nM in [9]. The binding result in assay [5] is reported as “no binding (tested: 30 µg/ml highest concentration)”. Besides, the “SK-MEL-28 cell based ATPase inhibition % at 10 nM” value in assay [7] is 75%.
